# Values quoted from earlier work, collected in publication PMC6627586.
# pKd: −log10 of the molar value.
# Target: ceruloplasmin (Homo sapiens) (UniProt P00450)
# Sequence of UniProt P00450 (P00450 20-1065): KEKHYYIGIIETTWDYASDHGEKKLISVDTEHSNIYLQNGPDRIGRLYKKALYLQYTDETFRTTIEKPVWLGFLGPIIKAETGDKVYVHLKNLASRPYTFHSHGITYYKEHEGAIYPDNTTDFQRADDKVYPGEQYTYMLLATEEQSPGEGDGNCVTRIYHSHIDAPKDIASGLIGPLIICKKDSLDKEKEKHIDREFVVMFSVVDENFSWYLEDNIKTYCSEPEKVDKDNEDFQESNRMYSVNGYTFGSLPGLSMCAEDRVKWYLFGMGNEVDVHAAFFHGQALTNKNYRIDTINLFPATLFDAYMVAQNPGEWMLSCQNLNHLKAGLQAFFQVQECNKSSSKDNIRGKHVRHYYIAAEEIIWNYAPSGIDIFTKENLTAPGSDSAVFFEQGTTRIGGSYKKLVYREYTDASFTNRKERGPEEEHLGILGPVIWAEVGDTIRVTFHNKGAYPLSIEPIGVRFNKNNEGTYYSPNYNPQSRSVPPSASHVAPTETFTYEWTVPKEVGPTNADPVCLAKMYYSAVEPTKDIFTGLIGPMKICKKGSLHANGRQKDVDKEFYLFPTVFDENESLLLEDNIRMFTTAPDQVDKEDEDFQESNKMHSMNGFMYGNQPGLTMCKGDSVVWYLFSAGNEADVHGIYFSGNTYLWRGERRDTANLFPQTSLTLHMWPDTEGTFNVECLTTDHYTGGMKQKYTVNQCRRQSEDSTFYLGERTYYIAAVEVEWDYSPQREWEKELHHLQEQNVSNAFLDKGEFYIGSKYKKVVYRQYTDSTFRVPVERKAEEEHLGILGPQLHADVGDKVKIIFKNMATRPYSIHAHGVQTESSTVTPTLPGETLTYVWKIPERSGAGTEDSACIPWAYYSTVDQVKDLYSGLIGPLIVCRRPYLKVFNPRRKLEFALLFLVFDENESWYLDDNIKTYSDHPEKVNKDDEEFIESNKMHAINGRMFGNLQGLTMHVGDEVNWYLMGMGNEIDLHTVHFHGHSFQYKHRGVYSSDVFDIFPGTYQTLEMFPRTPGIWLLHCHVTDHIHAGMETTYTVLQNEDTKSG
substance,measurement,value
CTR1 second extracellular loop fragment (from UniProt O15431),pKd,5.82
